29 molecules from patent US20210355194A1 (TWIST BIOSCIENCE, published 2021) can be followed below.

As usually defined, the koff is a measure of how fast the partners let go of each other. The kon is the rate constant with which the complex forms. Low readings indicate slow association, high ones fast association. Broadly, the Kd is the constant that tells how readily two partners part at equilibrium. Low readings indicate tighter binding, high ones weaker binding.

The chains are these.
B1: ACE2 variant antibody 4-64 (VHH)
VHH: EVQLVESGGGLVQPGGSLRLSCAASGRTFGDYIMGWFRQAPGKERESVAAINWSAGYTAYADSVKGRFTISADNSKNTAYLQMNSLKPEDTAVYYCATASPNTGWHFDHWGQGTLVTVSS
B2: ACE2 variant antibody 4-41 (VHH)
VHH: EVQLVESGGGLVQPGGSLRLSCAASGRTFGDYIMGWFRQAPGKERESVAAINWSGGTTPYADSVKGRFTISADNSKNTAYLQMNSLKPEDTAVYYCATDPPLFCCHVDLWGQGTLVTVSS
B3: ACE2 variant antibody 4-95 (VHH)
VHH: B1 VHH with S47I, S100P, N102L, T103F, G104C
B4: ACE2 variant antibody 4-61 (VHH)
VHH: B1 VHH with S47I, G56D, A59P, S100P
B5: ACE2 variant antibody 4-49 (VHH)
VHH: B1 VHH with T98R
B6: ACE2 variant antibody 4-89 (VHH)
VHH: EVQLVESGGGLVQPGGSLRLSCAASGFAFGDNWIGWFRQAPGKEREWVASISSGGTTAYADNVKGRFTIIADNSKNTAYLQMNSLKPEDTAVYYCAHRGGWLRPWGYWGQGTLVTVSS
B7: ACE2 variant antibody 4-33 (VHH)
VHH: EVQLVESGGGLVQPGGSLRLSCAASGFTFSRHDMGWFRQAPGKEREFVAGINWESGSTNYADSVKGRFTISADNSKNTAYLQMNSLKPEDTAVYYCAADRGVYGGRWYRTSQYTWGQGTLVTVSS
B8: ACE2 variant antibody 4-62 (VHH)
VHH: EVQLVESGGGLVQPGGSLRLSCAASGRTFSDDTMGWFRQAPGKEREFVAAINWSGGSTDYADSVKGRFTISADNSKNTAYLQMNSLKPEDTAVYYCATDPPLFWGQGTLVTVSS
B9: ACE2 variant antibody 4-63 (VHH)
VHH: B8 VHH with D32Y, S57Y, D59Y
B10: ACE2 variant antibody 4-69 (VHH)
VHH: B8 VHH with T33A, S57T, D59R
B11: ACE2 variant antibody 4-67 (VHH)
VHH: B8 VHH with G56D, D59Y
B12: ACE2 variant antibody 4-75 (VHH)
VHH: B8 VHH with S30G, S54T, S57Y, D59P
B13: ACE2 variant antibody 4-74 (VHH)
VHH: B8 VHH with R27L, I51V, N52S, S57N, D59Y
B14: variant 6-70 (Fc fusion)
VHH: EVQLVESGGGLVQPGGSLRLSCAASGFNLDDYADMGWFRQAPGKEREFVAAIGWGGGSTRYADSVKGRFTISADNSKNTAYLQMNSLKPEDTAVYYCAREILWFGEFGEPNVWGQGTLVTVSS
B15: variant 6-82 (Fc fusion)
VHH: EVQLVESGGGLVQPGGSLRLSCAASGSSLDAYGMGWFRQAPGKEREFVAAISWGGGSIYYADSVKGRFTISADNSKNTAYLQMNSLKPEDTAVYYCARLSQGMVALDYWGQGTLVTVSS
B16: variant 6-72 (Fc fusion)
VHH: EVQLVESGGGLVQPGGSLRLSCAASGSTLSINAMGWFRQAPGKEREFVAAIDWSGGSTAYADSVKGRFTISADNSKNTAYLQMNSLKPEDTAVYYCARDSSATRTGPDYWGQGTLVTVSS
B17: variant 6-102 (Fc fusion)
VHH: EVQLVESGGGLVQPGGSLRLSCAASGSSFSAYAMGWFRQAPGKEREFVSAIDSEGTTTYADSVKGRFTISADNSKNTAYLQMNSLKPEDTAVYYCAGDYNFWSGFDHWGQGTLVTVSS
B18: variant 6-84 (Fc fusion)
VHH: EVQLVESGGGLVQPGGSLRLSCAASGFTPDDYAMGWFRQAPGKEREFVAAINSGGSYTYYADSVKGRFTISADNSKNTAYLQMNSLKPEDTAVYYCARDRGPWGQGTLVTVSS
B19: variant 6-71 (Fc fusion)
VHH: EVQLVESGGGLVQPGGSLRLSCAASGITFSNDAMGWFRQAPGKEREFVAIITSSDTNDTTNYADSVKGRFTISADNSKNTAYLQMNSLKPEDTAVYYCARLHYYDSSGYFDYWGQGTLVTVSS
B20: variant 6-108 (Fc fusion)
VHH: EVQLVESGGGLVQPGGSLRLSCAASGGTFGSYGMGWFRQAPGKEREFVAAIRWSGGITYYADSVKGRFTISADNSKNTAYLQMNSLKPEDTAVYYCARERYWNPLPYYYYGMDVWGQGTLVTVSS
B21: variant 6-81 (Fc fusion)
VHH: EVQLVESGGGLVQPGGSLRLSCAASGFIGNYHAMGWFRQAPGKEREFVAAVTWSGGTTNYADSVKGRFTISADNSKNTAYLQMNSLKPEDTAVYYCAREGYYYDSSGYPYYFDYWGQGTLVTVSS
B22: variant 6-74 (Fc fusion)
VHH: EVQLVESGGGLVQPGGSLRLSCAASGFAFGDSWMGWFRQAPGKERELVAAITSGGSTDYADSVKGRFTISADNSKNTAYLQMNSLKPEDTAVYYCARGLLWFGELFGYWGQGTLVTVSS
B23: variant 6-97 (Fc fusion)
VHH: EVQLVESGGGLVQPGGSLRLSCAASGFTFSSLAMGWFRQAPGKEREFVAAITWSGDITNYADSVKGRFTITADNSKNTAYLQMNSLKPEDTAVYYCLRLSSSGFDHWGQGTLVTVSS
B24: variant 6-112 (Fc fusion)
VHH: EVQLVESGGGLVQPGGSLRLSCAASGGTFSAYHMGWFRQAPGKERELVTIIDNGGPTSYADSVKGRFTISADNSKNTAYLQMNSLKPEDTAVYYCTALLYYFDNSGYNFDPFDIWGQGTLVTGSS
B25: variant 6-103 (Fc fusion)
VHH: EVQLVESGGGLVQPGGSLRLSCAASGRTSSPIAMGWFRQAPGKEREPVAVRWSDDYTYYADSVKGRFTISADNSKNTAYLQMNSLKPEDTAVYYCAKKLGGYYAFDIWGQGTLVTVSS
B26: variant 6-99 (Fc fusion)
VHH: EVQLVESGGGLVQPGGSLRLSCAASGIPFRSRTMGWFRQAPGKEREFVAGISRSGASTAYADSVKGRFTISADNSKNTAYLQMNSLKPEDTAVYYCTHANDYGDYWGQGTLVTVSS
B27: variant 6-79 (Fc fusion)
VHH: EVQLVESGGGLVQPGGSLRLSCAASGSISSIDYMGWFRQAPGKEREGVSWISSSDGSTYYADSVKGRFTISADNSKNTAYLQMNSLKPEDTAVYYCARSPSFSQIYYYYYMDVWGQGTLVTVSS
B28: variant 6-90 (Fc fusion)
VHH: EVQLVESGGGLVQPGGSLRLSCAASGFPFSIWPMGWFRQAPGKEREFVAAVRWSSTYYADSVKGRFTISADNSKNTAYLQMNSLKPEDTAVYYCATGECDGGSCSLAYWGQGTLVTVSS
B29: variant 6-75 (Fc fusion)
VHH: EVQLVESGGGLVQPGGSLRLSCAASGGTFSTYWMGWFRQAPGKEREFVAAISRSGGNTYYADSVKGRFTISADNSKNTAYLQMNSLKPEDTAVYYCVRHSGTDGDSSFDYWGQGTLVTVSS

Positions count from the first letter of the chain named.

One experiment deals with T1, ACE2 (human, UniProt Q9BYF1 18-740).
T1 sequence (Q9BYF1 18-740 limits assumed): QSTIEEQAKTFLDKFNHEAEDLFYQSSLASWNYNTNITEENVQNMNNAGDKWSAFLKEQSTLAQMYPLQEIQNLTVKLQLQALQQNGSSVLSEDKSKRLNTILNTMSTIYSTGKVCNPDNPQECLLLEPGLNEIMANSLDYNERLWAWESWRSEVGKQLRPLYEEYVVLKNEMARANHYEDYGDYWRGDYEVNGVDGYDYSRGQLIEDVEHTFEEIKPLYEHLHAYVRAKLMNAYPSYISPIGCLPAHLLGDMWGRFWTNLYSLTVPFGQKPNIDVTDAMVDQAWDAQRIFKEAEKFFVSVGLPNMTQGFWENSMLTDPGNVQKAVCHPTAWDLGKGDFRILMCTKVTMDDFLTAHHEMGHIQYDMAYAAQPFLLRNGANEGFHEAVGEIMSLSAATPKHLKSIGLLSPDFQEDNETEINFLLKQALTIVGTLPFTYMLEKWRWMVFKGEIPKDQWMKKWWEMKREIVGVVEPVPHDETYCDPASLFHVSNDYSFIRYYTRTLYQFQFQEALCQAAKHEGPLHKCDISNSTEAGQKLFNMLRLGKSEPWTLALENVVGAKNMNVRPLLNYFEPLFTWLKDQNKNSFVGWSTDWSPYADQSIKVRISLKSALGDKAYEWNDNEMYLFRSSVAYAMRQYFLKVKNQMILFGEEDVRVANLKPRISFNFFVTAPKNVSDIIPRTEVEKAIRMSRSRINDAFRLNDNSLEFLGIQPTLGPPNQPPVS
Assay: not given
In the case of B1, the koff came out at 0.0007 s⁻¹ and the kon is 2.9e+06 M⁻¹ s⁻¹.
Molecule B2 returned a koff of 0.001 s⁻¹ and a kon of 180000 M⁻¹ s⁻¹.
The corresponding values for B3 are 0.00772 s⁻¹ and 415000 M⁻¹ s⁻¹.
For B4, in that order: 0.00286 s⁻¹ and 348000 M⁻¹ s⁻¹.
Turning to B5, the koff was determined as 0.00098 s⁻¹ and the kon worked out at 2.91e+06 M⁻¹ s⁻¹.
For the molecule B6, the off-rate constant (koff) turned out to be 0.000611 s⁻¹ and the kon was found to be 2.04e+06 M⁻¹ s⁻¹.
B7 had a dissociation rate constant (koff) of 0.000552 s⁻¹ and an on-rate (kon) of 229000 M⁻¹ s⁻¹.
For B8, the koff was 0.00365 s⁻¹ and the kon was found to be 245000 M⁻¹ s⁻¹.
As to B9, the koff is 0.00105 s⁻¹ and the kon was found to be 610000 M⁻¹ s⁻¹.
The corresponding values for B10 are 0.00256 s⁻¹ and 99400 M⁻¹ s⁻¹.
Molecule B11 gave an off-rate constant (koff) of 0.00214 s⁻¹ and an on-rate (kon) of 93900 M⁻¹ s⁻¹.
For the molecule B12, the off-rate (koff) stood at 0.00478 s⁻¹ and the kon is 299000 M⁻¹ s⁻¹.
With B13, the off-rate (koff) stood at 0.00285 s⁻¹ and the kon was 248000 M⁻¹ s⁻¹.

In a further experiment the target is T2, Acro SARS-CoV-2 (COVID-19) S1 protein (SARS-CoV-2, UniProt P0DTC2 16-685).
T2 construct: also called SARS-CoV-2 S1
As to the kind of experiment: SPR. Background: Surface plasmon resonance follows binding to a sensor surface in real time, without labels.
Take B14: binding was put at a Kd of 35.9 nM.
B15 displayed a dissociation constant (Kd) of 7.1 nM.
In the case of B16, the affinity, expressed as Kd, was 92.8 nM.
Molecule B17 had a dissociation constant Kd of 45.7 nM.
The same measure, in the same setting: under B18 stands 82.6 nM; under B19, 155 nM.
With B20, the Kd came out at 69.4 nM.
The molecule B21 had a Kd of 12.9 nM. Against the preceding molecule, the Kd is about 5.4-fold lower.
With B22, the Kd stood at 73.9 nM.
The molecule B23 returned a Kd of 4070 nM. Against the preceding molecule, the Kd is about 55-fold higher.
With B24, binding was put at a Kd of 3230 nM. The Kd values of the last two molecules are within 1.5-fold of each other.
In the case of B25, the affinity, expressed as Kd, was 23.6 nM.
On to B26, for which binding was characterised by a dissociation constant (Kd) of 51.6 nM.
Molecule B27 displayed a Kd of 158 nM.
Take B28: the dissociation constant (Kd) is 114 nM.
For B29, the Kd was 181 nM. This Kd lies about 1.6-fold higher than the previous one.

The target in another experiment is T1, ACE2.
Assay: not given
The source holds these as a separate data set.
As for B1, the Kd came to 0.2 nM, the koff stood at 0.0007 s⁻¹ and the on-rate (kon) worked out at 2.9e+06 M⁻¹ s⁻¹.
B2 yielded an equilibrium dissociation constant (Kd) of 5.6 nM, a koff of 0.001 s⁻¹ and a kon of 180000 M⁻¹ s⁻¹.
For B3, in that order: 18.6 nM, 0.00772 s⁻¹ and 415000 M⁻¹ s⁻¹.
Molecule B4 gave a dissociation constant (Kd) of 8.2 nM, a dissociation rate constant (koff) of 0.00286 s⁻¹ and an on-rate (kon) of 348000 M⁻¹ s⁻¹.
Molecule B5 gave a Kd of 0.3 nM, a koff of 0.00098 s⁻¹ and an on-rate constant (kon) of 2.91e+06 M⁻¹ s⁻¹.
For B6, in that order: 0.3 nM, 0.000611 s⁻¹ and 2.04e+06 M⁻¹ s⁻¹.
As to B7, binding was characterised by a dissociation constant (Kd) of 2.4 nM, the koff is 0.000552 s⁻¹ and the kon was 229000 M⁻¹ s⁻¹.
Molecule B8 gave a Kd of 14.9 nM, a dissociation rate constant (koff) of 0.00365 s⁻¹ and an on-rate constant (kon) of 245000 M⁻¹ s⁻¹.
For B9, in that order: 1.7 nM, 0.00105 s⁻¹ and 610000 M⁻¹ s⁻¹.
B10 yielded a dissociation constant Kd of 25.8 nM, a koff of 0.00256 s⁻¹ and a kon of 99400 M⁻¹ s⁻¹.
The corresponding values for B11 are 22.8 nM, 0.00214 s⁻¹ and 93900 M⁻¹ s⁻¹.
In turn, B12 yielded a dissociation constant (Kd) of 16 nM, a koff of 0.00478 s⁻¹ and a kon of 299000 M⁻¹ s⁻¹.
B13 had a Kd of 11.5 nM, a koff of 0.00285 s⁻¹ and an on-rate (kon) of 248000 M⁻¹ s⁻¹.
